Conditions: Homo sapiens; pH 7.4; Thermal; CD; Phosphate buffer saline; whole UniProt chain shown

B1: SH2 domain-containing protein 1A wild type, O60880 (protein)
chain: MDAVAVYHGKISRETGEKLLLATGLDGSYLLRDSESVPGVYCLCVLYHGYIYTYRVSQTETGSWSAETAPGVHKRYFRKIKNLISAFQKPDQGIVIPLQYPVEKKSSARSTQGTTGIREDPDVCLKAP
Tm: 57.8 °C

— FireProtDB (doi:10.1021/bi034798l)
